Measurements taken from EP0957164B1.

The substances below were run against insulin (UniProt P01308) (assay: PEG precipitation assay, A14-125I-insulin tracer displaced by unlabeled insulin, BHK medium).
Chain of UniProt P01308 (P01308 90-110 limits assumed, chain 1 of 2): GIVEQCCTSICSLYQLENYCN
Chain of UniProt P01308 (P01308 25-54 limits assumed, chain 2 of 2): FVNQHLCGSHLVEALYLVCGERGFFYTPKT

Question: For “IGFIR(Δ459-672).1-68, 704-729.IR (receptor)”, which Kd is on record?
Answer: 4.4 nM

Question: With IGFIR(Δ459-672).1-68IR (receptor) as the substance, how does the Kd read?
Answer: 2.1 nM

Question: For IRΔ673 (receptor), which Kd is on record?
Answer: 1.1 nM

Question: For IRΔ685 (receptor), which Kd is on record?
Answer: 6.4 nM

Question: With IRΔ703 (receptor) as the substance, how does the Kd read?
Answer: 4.4 nM
